Assay results taken from article PMC6336196 (Nature, 2018).
Where two headings read alike, the source gives them in different places.

B1: Cyphellophora europaea mitochondrial calcium uniporter (natural protein, UniProt W2SDE2 1-346, looked up)
chain: MTKGKLLTTPSRLLKLVLPLSTVDHNTDRKDVAPLALLVHPQQPLSYLERLIQAELPPPDPQDSKSTTRSVTFRAMEAKDDEIKPRKKADTEGGGGSDGSVQSYSGAGREGEGKDEGEFVRWSPSTEIGDFIRDAARAKEFEVEIEGSPGVIKVAVPSFNDRTYYLRQRLRRTSRKISKLAAIKEECDKAAHRGAQRIALAGCGGLIGYWYIVYRLTFETDLGWDVMEPVTYLVGLSTLIGGYMWFLWHNREVSYRSALNITVSARQNKLYQAKGFSLQDWEGYLEEANAMRREIKAVASEYDVDWNETQDEGGDEKVTKALRDERKNNNGTKNKSKEGEEDDEDD
B2: Danio rerio (zebrafish) mitochondrial calcium uniporter (natural protein, zebrafish (Danio rerio), UniProt Q08BI9 35-376, looked up)
chain: QGTKTEALSMSLGGHQTVRRAHGLRTGGRCALFCHPSATLTAQGWKGSPSWQVQRLLCSPAAEDVSVVYQNGLPVISVRLPSRRERCQFTLKPLSDTVGVFLQQLQAEDRGIDRVTIYSADGARIASSTGIDILLMDNFKLVINDTSYLVQPPRRDLLPHEDGERLNDVKILVQQLYTTLRIEEHQLNKERELIGRLEDLNSQLQPLEKVKEELSKKAERRTTWVLWGGMAYMATQFGILARLTWWEYSWDIMEPVTYFITYGTAMAMYAYFVLTRQEYLYPDARDRQYLLFFHRGAKRTRFDIEKYNKLKDAIAEAELDLKRLRDPLQLNLPIQQIDTSKD

How the values were obtained:
cryo-EM structure [1] = target: the molecule itself; assay: cryo-EM structure
cryo-EM structure [2] = target: the molecule itself; assay: cryo-EM structure; remark: listed apart in the source

Protein	stoichiometry N (cryo-EM structure [1])	stoichiometry N (cryo-EM structure [2])
B1	4	–
B2	–	4
